Source: PMC3877283, “Development of Novel Radiogallium-Labeled Bone Imaging Agents Using Oligo-Aspartic Acid Peptides as Carriers” (PLoS ONE, 2013)
Peptide text beside a SMILES is read from it. * marks the point of attachment. DOTA = O=C(O)CN1CCN(CC(=O)O)CCN(CC(=O)*)CCN(CC(=O)O)CC1

assay: Biodistribution experiments in normal mice; assay type: in vivo, ddY mice; conditions: mouse, in vivo, iv
Method: Experiments with animals were conducted in strict accordance with the Guidelines for the Care and Use of Laboratory Animals of Kanazawa University. The animal experimental protocols used were approved by the Committee on Animal Experimentation of Kanazawa University (Permit Number: AP-132633). Biodistribution experiments were performed after an intravenous administration of each diluted tracer solution (37 kBq/100 µL) to 6-week-old male ddY mice (27–32 g, Japan SLC, Inc., Hamamatsu, Japan). To investigate the effect of an excess amount of bisphosphonate on biodistribution, alendronate (20 mg/kg) was intravenously administered to mice 1 minute before the intravenous injection of ^67Ga-DOTA-(Asp)14 or ^67Ga-DOTA-Bn-SCN-HBP. Four to six mice each were sacrificed by decapitation at 10, 60, and 180 minutes post-injection. Tissues of interest were removed and weighed. Complete left femurs were isolated as representative bone samples, radioactivity was determined using an auto well gamma counter, and counts were corrected for background radiation and physical decay during counting.

| SMILES | accumulation of radioactivity in the femur (in words) |
| --- | --- |
| O=C(O)C[C@H](NC(=O)[C@H](CC(=O)O)NC(=O)[C@H](CC(=O)O)NC(=O)[C@H](CC(=O)O)NC(=O)[C@H](CC(=O)O)NC(=O)[C@H](CC(=O)O)NC(=O)[C@H](CC(=O)O)NC(=O)[C@H](CC(=O)O)NC(=O)CN1CCN(CC(=O)O)CCN(CC(=O)O)CCN(CC(=O)O)CC1)C(=O)O [67Ga-DOTA-(Asp)8, metal not drawn] ({DOTA}-DDDDDDDD-OH) | higher accumulation |
| O=C(O)C[C@H](NC(=O)[C@H](CC(=O)O)NC(=O)CN1CCN(CC(=O)O)CCN(CC(=O)O)CCN(CC(=O)O)CC1)C(=O)O [67Ga-DOTA-(Asp)2, metal not drawn] ({DOTA}-Asp-Asp-OH) | hardly accumulated in the femur |
| O=C(O)C[C@H](NC(=O)[C@H](CC(=O)O)NC(=O)[C@H](CC(=O)O)NC(=O)[C@H](CC(=O)O)NC(=O)[C@H](CC(=O)O)NC(=O)CN1CCN(CC(=O)O)CCN(CC(=O)O)CCN(CC(=O)O)CC1)C(=O)O [67Ga-DOTA-(Asp)5, metal not drawn] ({DOTA}-DDDDD-OH) | moderate accumulation |
